Biological target: F-actin (polymerized rabbit muscle G-actin) (Oryctolagus cuniculus (Rabbit), UniProt P68135)
Assay: F-actin co-sedimentation

B1: GST-tagged ENTH domain of rat epsin 1 (protein)
chain: MSTSSLRRQMKNIVHNYSEAEIKVREATSNDPWGPSSSLMSEIADLTYNVVAFSEIMSMIWKRLNDHGKNWRHVYKAMTLMEYLIKTGSERVSQQCKENMYAVQTLKDFQYVDRDGKDQGVNVREKAKQLVALLRDEDRLREER
  binding result: no binding

From article PMC4161027 (2014)
